Patent US20260001928A1 (CORTERIA PHARMACEUTICALS, priority 2022, published 2026)
*1 amine or outer side, *2 acyl side, *3 side chain or, on linkers, in order; H or OH if unused. Where no end group is shown, it is not given here. Side-chain parts run from the residue outwards. [ ]: non-standard residue; d: D form. The star is where a group is joined. C16 diacid = O=C(O)CCCCCCCCCCCCCCC(=O)*; γGlu = O=C(O)[C@H](CCC(=O)[*:2])N[*:1]; NMeI = CC[C@H](C)[C@H](NC)C(=O)O; NMeV = CN[C@H](C(=O)O)C(C)C; Decanoyl = CCCCCCCCCC(=O)*; Api = NC1(C(=O)O)CCNCC1; Hexanoyl = CCCCCC(=O)*; Aib = CC(C)(N)C(=O)O

Legend:
[1] = biological target: human corticotropin-releasing factor 2a (CRF2a receptor) (human), Q13324; assay: cell-based or functional assay
[2] = biological target: T1, CRF1R receptor (UniProt P34998 24-415, limits assumed); assay: cell-based or functional assay
T1 sequence (looked up): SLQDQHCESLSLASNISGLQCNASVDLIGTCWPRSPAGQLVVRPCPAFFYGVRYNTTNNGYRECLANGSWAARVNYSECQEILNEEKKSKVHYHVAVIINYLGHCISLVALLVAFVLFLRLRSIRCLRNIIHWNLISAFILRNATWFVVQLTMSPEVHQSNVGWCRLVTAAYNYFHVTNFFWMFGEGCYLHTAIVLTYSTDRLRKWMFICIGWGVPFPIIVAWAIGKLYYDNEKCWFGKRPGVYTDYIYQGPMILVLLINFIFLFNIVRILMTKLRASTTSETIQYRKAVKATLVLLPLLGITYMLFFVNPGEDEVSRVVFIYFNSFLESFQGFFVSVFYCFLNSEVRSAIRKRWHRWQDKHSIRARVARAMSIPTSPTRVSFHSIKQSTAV

Chain of human corticotropin-releasing factor 2a (CRF2a receptor) (human), Q13324 (Q13324 20-411): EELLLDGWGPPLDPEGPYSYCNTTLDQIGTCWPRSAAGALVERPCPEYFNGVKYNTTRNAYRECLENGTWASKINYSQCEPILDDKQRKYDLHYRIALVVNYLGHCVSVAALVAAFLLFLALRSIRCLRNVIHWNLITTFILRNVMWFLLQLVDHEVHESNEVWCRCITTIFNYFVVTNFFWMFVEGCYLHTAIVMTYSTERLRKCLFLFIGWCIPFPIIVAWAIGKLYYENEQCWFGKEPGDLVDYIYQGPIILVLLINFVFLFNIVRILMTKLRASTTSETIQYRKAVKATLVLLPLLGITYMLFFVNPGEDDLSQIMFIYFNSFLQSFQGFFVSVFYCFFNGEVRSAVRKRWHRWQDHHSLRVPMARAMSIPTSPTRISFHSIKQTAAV

B1: SEQ ID NO 157 (peptide)
peptide: Hexanoyl-VLSLD[dV]PIKLK([γGlu-C16 diacid])KILLEQEKQKKQREQAETN[Api]QILAQV-NH2
SMILES: CCCCCC(=O)N[C@H](C(=O)N[C@@H](CC(C)C)C(=O)N[C@@H](CO)C(=O)N[C@@H](CC(C)C)C(=O)N[C@@H](CC(=O)O)C(=O)N[C@@H](C(=O)N1CCC[C@H]1C(=O)N[C@H](C(=O)N[C@@H](CCCCN)C(=O)N[C@@H](CC(C)C)C(=O)N[C@@H](CCCCNC(=O)CC[C@H](NC(=O)CCCCCCCCCCCCCCC(=O)O)C(=O)O)C(=O)N[C@@H](CCCCN)C(=O)N[C@H](C(=O)N[C@@H](CC(C)C)C(=O)N[C@@H](CC(C)C)C(=O)N[C@@H](CCC(=O)O)C(=O)N[C@@H](CCC(N)=O)C(=O)N[C@@H](CCC(=O)O)C(=O)N[C@@H](CCCCN)C(=O)N[C@@H](CCC(N)=O)C(=O)N[C@@H](CCCCN)C(=O)N[C@@H](CCCCN)C(=O)N[C@@H](CCC(N)=O)C(=O)N[C@@H](CCCNC(=N)N)C(=O)N[C@@H](CCC(=O)O)C(=O)N[C@@H](CCC(N)=O)C(=O)N[C@@H](C)C(=O)N[C@@H](CCC(=O)O)C(=O)N[C@H](C(=O)N[C@@H](CC(N)=O)C(=O)NC1(C(=O)N[C@@H](CCC(N)=O)C(=O)N[C@H](C(=O)N[C@@H](CC(C)C)C(=O)N[C@@H](C)C(=O)N[C@@H](CCC(N)=O)C(=O)N[C@H](C(N)=O)C(C)C)[C@@H](C)CC)CCNCC1)[C@@H](C)O)[C@@H](C)CC)[C@@H](C)CC)C(C)C)C(C)C
- EC50 [nM] (cAMP) [1]: 0.32 nM
- Emax (% I) [2]: 30%

B2: SEQ ID NO 155 (peptide)
peptide: [NMeI]VLSLD[dV]PIKLK([γGlu-C16 diacid])KILLEQEKQK[Aib]QREQAETN[Api]QILAQV-NH2
modifications: N-terminus assumed
SMILES: CC[C@H](C)[C@H](NC)C(=O)N[C@H](C(=O)N[C@@H](CC(C)C)C(=O)N[C@@H](CO)C(=O)N[C@@H](CC(C)C)C(=O)N[C@@H](CC(=O)O)C(=O)N[C@@H](C(=O)N1CCC[C@H]1C(=O)N[C@H](C(=O)N[C@@H](CCCCN)C(=O)N[C@@H](CC(C)C)C(=O)N[C@@H](CCCCNC(=O)CC[C@H](NC(=O)CCCCCCCCCCCCCCC(=O)O)C(=O)O)C(=O)N[C@@H](CCCCN)C(=O)N[C@H](C(=O)N[C@@H](CC(C)C)C(=O)N[C@@H](CC(C)C)C(=O)N[C@@H](CCC(=O)O)C(=O)N[C@@H](CCC(N)=O)C(=O)N[C@@H](CCC(=O)O)C(=O)N[C@@H](CCCCN)C(=O)N[C@@H](CCC(N)=O)C(=O)N[C@@H](CCCCN)C(=O)NC(C)(C)C(=O)N[C@@H](CCC(N)=O)C(=O)N[C@@H](CCCNC(=N)N)C(=O)N[C@@H](CCC(=O)O)C(=O)N[C@@H](CCC(N)=O)C(=O)N[C@@H](C)C(=O)N[C@@H](CCC(=O)O)C(=O)N[C@H](C(=O)N[C@@H](CC(N)=O)C(=O)NC1(C(=O)N[C@@H](CCC(N)=O)C(=O)N[C@H](C(=O)N[C@@H](CC(C)C)C(=O)N[C@@H](C)C(=O)N[C@@H](CCC(N)=O)C(=O)N[C@H](C(N)=O)C(C)C)[C@@H](C)CC)CCNCC1)[C@@H](C)O)[C@@H](C)CC)[C@@H](C)CC)C(C)C)C(C)C
- EC50 [nM] (cAMP) [1]: 0.51 nM
- Emax (% I) [2]: 26%

B3: SEQ ID NO 156 (peptide)
peptide: Hexanoyl-VLSLD[dV]PIKLK([γGlu-C16 diacid])KILLEQEKQKKQREQAETN[Aib]QILAQV-NH2
SMILES: CCCCCC(=O)N[C@H](C(=O)N[C@@H](CC(C)C)C(=O)N[C@@H](CO)C(=O)N[C@@H](CC(C)C)C(=O)N[C@@H](CC(=O)O)C(=O)N[C@@H](C(=O)N1CCC[C@H]1C(=O)N[C@H](C(=O)N[C@@H](CCCCN)C(=O)N[C@@H](CC(C)C)C(=O)N[C@@H](CCCCNC(=O)CC[C@H](NC(=O)CCCCCCCCCCCCCCC(=O)O)C(=O)O)C(=O)N[C@@H](CCCCN)C(=O)N[C@H](C(=O)N[C@@H](CC(C)C)C(=O)N[C@@H](CC(C)C)C(=O)N[C@@H](CCC(=O)O)C(=O)N[C@@H](CCC(N)=O)C(=O)N[C@@H](CCC(=O)O)C(=O)N[C@@H](CCCCN)C(=O)N[C@@H](CCC(N)=O)C(=O)N[C@@H](CCCCN)C(=O)N[C@@H](CCCCN)C(=O)N[C@@H](CCC(N)=O)C(=O)N[C@@H](CCCNC(=N)N)C(=O)N[C@@H](CCC(=O)O)C(=O)N[C@@H](CCC(N)=O)C(=O)N[C@@H](C)C(=O)N[C@@H](CCC(=O)O)C(=O)N[C@H](C(=O)N[C@@H](CC(N)=O)C(=O)NC(C)(C)C(=O)N[C@@H](CCC(N)=O)C(=O)N[C@H](C(=O)N[C@@H](CC(C)C)C(=O)N[C@@H](C)C(=O)N[C@@H](CCC(N)=O)C(=O)N[C@H](C(N)=O)C(C)C)[C@@H](C)CC)[C@@H](C)O)[C@@H](C)CC)[C@@H](C)CC)C(C)C)C(C)C
- EC50 [nM] (cAMP) [1]: 0.29 nM
- Emax (% I) [2]: 8%

B4: SEQ ID NO 159 (peptide)
peptide: [NMeV]LSLD[dV]PIKLK([γGlu-C16 diacid])KILLEQEKQKKQREQAETN[Aib]QILAQV-NH2
modifications: N-terminus assumed
SMILES: CC[C@H](C)[C@H](NC(=O)[C@H](CCC(N)=O)NC(=O)C(C)(C)NC(=O)[C@H](CC(N)=O)NC(=O)[C@@H](NC(=O)[C@H](CCC(=O)O)NC(=O)[C@H](C)NC(=O)[C@H](CCC(N)=O)NC(=O)[C@H](CCC(=O)O)NC(=O)[C@H](CCCNC(=N)N)NC(=O)[C@H](CCC(N)=O)NC(=O)[C@H](CCCCN)NC(=O)[C@H](CCCCN)NC(=O)[C@H](CCC(N)=O)NC(=O)[C@H](CCCCN)NC(=O)[C@H](CCC(=O)O)NC(=O)[C@H](CCC(N)=O)NC(=O)[C@H](CCC(=O)O)NC(=O)[C@H](CC(C)C)NC(=O)[C@H](CC(C)C)NC(=O)[C@@H](NC(=O)[C@H](CCCCN)NC(=O)[C@H](CCCCNC(=O)CC[C@H](NC(=O)CCCCCCCCCCCCCCC(=O)O)C(=O)O)NC(=O)[C@H](CC(C)C)NC(=O)[C@H](CCCCN)NC(=O)[C@@H](NC(=O)[C@@H]1CCCN1C(=O)[C@H](NC(=O)[C@H](CC(=O)O)NC(=O)[C@H](CC(C)C)NC(=O)[C@H](CO)NC(=O)[C@H](CC(C)C)NC(=O)[C@@H](NC)C(C)C)C(C)C)[C@@H](C)CC)[C@@H](C)CC)[C@@H](C)O)C(=O)N[C@@H](CC(C)C)C(=O)N[C@@H](C)C(=O)N[C@@H](CCC(N)=O)C(=O)N[C@H](C(N)=O)C(C)C
- EC50 [nM] (cAMP) [1]: 2.97 nM
- Emax (% I) [2]: 4%

B5: SEQ ID NO 158 (peptide)
peptide: Decanoyl-VLSLD[dV]PIKLK([γGlu-C16 diacid])KILLEQEKQKKQREQAETN[Aib]QILAQV-NH2
SMILES: CCCCCCCCCC(=O)N[C@H](C(=O)N[C@@H](CC(C)C)C(=O)N[C@@H](CO)C(=O)N[C@@H](CC(C)C)C(=O)N[C@@H](CC(=O)O)C(=O)N[C@@H](C(=O)N1CCC[C@H]1C(=O)N[C@H](C(=O)N[C@@H](CCCCN)C(=O)N[C@@H](CC(C)C)C(=O)N[C@@H](CCCCNC(=O)CC[C@H](NC(=O)CCCCCCCCCCCCCCC(=O)O)C(=O)O)C(=O)N[C@@H](CCCCN)C(=O)N[C@H](C(=O)N[C@@H](CC(C)C)C(=O)N[C@@H](CC(C)C)C(=O)N[C@@H](CCC(=O)O)C(=O)N[C@@H](CCC(N)=O)C(=O)N[C@@H](CCC(=O)O)C(=O)N[C@@H](CCCCN)C(=O)N[C@@H](CCC(N)=O)C(=O)N[C@@H](CCCCN)C(=O)N[C@@H](CCCCN)C(=O)N[C@@H](CCC(N)=O)C(=O)N[C@@H](CCCNC(=N)N)C(=O)N[C@@H](CCC(=O)O)C(=O)N[C@@H](CCC(N)=O)C(=O)N[C@@H](C)C(=O)N[C@@H](CCC(=O)O)C(=O)N[C@H](C(=O)N[C@@H](CC(N)=O)C(=O)NC(C)(C)C(=O)N[C@@H](CCC(N)=O)C(=O)N[C@H](C(=O)N[C@@H](CC(C)C)C(=O)N[C@@H](C)C(=O)N[C@@H](CCC(N)=O)C(=O)N[C@H](C(N)=O)C(C)C)[C@@H](C)CC)[C@@H](C)O)[C@@H](C)CC)[C@@H](C)CC)C(C)C)C(C)C
- EC50 [nM] (cAMP) [1]: 0.04 nM
- EC50 [2]: 98.7 nM
- Emax (% I) [2]: 54%

B6: SEQ ID NO 154 (peptide)
peptide: [NMeI]VLSLD[dV]PIKLK([γGlu-C16 diacid])KILLEQEKQKAQREQAETN[Api]QILAQV-NH2
modifications: N-terminus assumed
SMILES: CC[C@H](C)[C@H](NC)C(=O)N[C@H](C(=O)N[C@@H](CC(C)C)C(=O)N[C@@H](CO)C(=O)N[C@@H](CC(C)C)C(=O)N[C@@H](CC(=O)O)C(=O)N[C@@H](C(=O)N1CCC[C@H]1C(=O)N[C@H](C(=O)N[C@@H](CCCCN)C(=O)N[C@@H](CC(C)C)C(=O)N[C@@H](CCCCNC(=O)CC[C@H](NC(=O)CCCCCCCCCCCCCCC(=O)O)C(=O)O)C(=O)N[C@@H](CCCCN)C(=O)N[C@H](C(=O)N[C@@H](CC(C)C)C(=O)N[C@@H](CC(C)C)C(=O)N[C@@H](CCC(=O)O)C(=O)N[C@@H](CCC(N)=O)C(=O)N[C@@H](CCC(=O)O)C(=O)N[C@@H](CCCCN)C(=O)N[C@@H](CCC(N)=O)C(=O)N[C@@H](CCCCN)C(=O)N[C@@H](C)C(=O)N[C@@H](CCC(N)=O)C(=O)N[C@@H](CCCNC(=N)N)C(=O)N[C@@H](CCC(=O)O)C(=O)N[C@@H](CCC(N)=O)C(=O)N[C@@H](C)C(=O)N[C@@H](CCC(=O)O)C(=O)N[C@H](C(=O)N[C@@H](CC(N)=O)C(=O)NC1(C(=O)N[C@@H](CCC(N)=O)C(=O)N[C@H](C(=O)N[C@@H](CC(C)C)C(=O)N[C@@H](C)C(=O)N[C@@H](CCC(N)=O)C(=O)N[C@H](C(N)=O)C(C)C)[C@@H](C)CC)CCNCC1)[C@@H](C)O)[C@@H](C)CC)[C@@H](C)CC)C(C)C)C(C)C
- EC50 [nM] (cAMP) [1]: 0.52 nM
- Emax (% I) [2]: 24%
